Source: patent publication US20230055566A1
Where a chain is given by its changes, count along the chain named. Blank lines part the entries; values can stand above or below the binder they belong to.

What was measured:
[1] = target: human FGFR2b (beta)-Fc (human) (UniProt P21802); assay: SPR (Biacore), hFGFR2b-Fc immobilized on CM5 chip, antibody injected at 0-200 nM
[2] = target: recombinant human FGFR1b-Fc (human) (UniProt P11362); assay: SPR (Biacore T200), hFGFR1b-Fc amine-coupled on CM5 chip, antibody as analyte
[3] = target: recombinant human FGFR1b-Fc (human) (UniProt P11362); assay: SPR (Biacore), hFGFR1b-Fc immobilized on CM5 chip, antibody injected at 0-200 nM
[4] = target: endogenous FGFR2b on the cell membrane of human gastric cancer cells (KATOIII, SNU16) (human) (UniProt P21802); assay: flow cytometry on FGFR2b expressing KATOIII cells
[5] = target: human FGFR2b on engineered Ba/F3 cells (Ba/F3-FGFR2b) (human), P21802; assay: cell-based or functional assay
[6] = target: recombinant human FGFR2b-Fc (murine Fc) (human) (UniProt P21802); assay: ELISA, plate coated with human FGFR2b-Fc, anti-human IgG HRP
[7] = target: human FGFR2b (beta)-Fc (human) (UniProt P21802); assay: ELISA, plate coated with HuFGFR2b

recombinant human FGFR1b-Fc (human), sequence (P11362 other isoform, or with tags, fused parts or gaps): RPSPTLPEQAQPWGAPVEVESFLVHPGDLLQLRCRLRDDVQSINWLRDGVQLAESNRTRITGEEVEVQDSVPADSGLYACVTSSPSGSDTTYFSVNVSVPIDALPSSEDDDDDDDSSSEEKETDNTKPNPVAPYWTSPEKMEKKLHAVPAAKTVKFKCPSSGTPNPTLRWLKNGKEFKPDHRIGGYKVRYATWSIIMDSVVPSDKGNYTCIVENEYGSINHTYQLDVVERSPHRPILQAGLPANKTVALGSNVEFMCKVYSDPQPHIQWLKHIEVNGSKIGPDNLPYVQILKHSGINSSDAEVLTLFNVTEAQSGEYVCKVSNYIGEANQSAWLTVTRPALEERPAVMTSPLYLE
human FGFR2b on engineered Ba/F3 cells (Ba/F3-FGFR2b) (human), P21802, sequence (P21802 22-821, change not shown): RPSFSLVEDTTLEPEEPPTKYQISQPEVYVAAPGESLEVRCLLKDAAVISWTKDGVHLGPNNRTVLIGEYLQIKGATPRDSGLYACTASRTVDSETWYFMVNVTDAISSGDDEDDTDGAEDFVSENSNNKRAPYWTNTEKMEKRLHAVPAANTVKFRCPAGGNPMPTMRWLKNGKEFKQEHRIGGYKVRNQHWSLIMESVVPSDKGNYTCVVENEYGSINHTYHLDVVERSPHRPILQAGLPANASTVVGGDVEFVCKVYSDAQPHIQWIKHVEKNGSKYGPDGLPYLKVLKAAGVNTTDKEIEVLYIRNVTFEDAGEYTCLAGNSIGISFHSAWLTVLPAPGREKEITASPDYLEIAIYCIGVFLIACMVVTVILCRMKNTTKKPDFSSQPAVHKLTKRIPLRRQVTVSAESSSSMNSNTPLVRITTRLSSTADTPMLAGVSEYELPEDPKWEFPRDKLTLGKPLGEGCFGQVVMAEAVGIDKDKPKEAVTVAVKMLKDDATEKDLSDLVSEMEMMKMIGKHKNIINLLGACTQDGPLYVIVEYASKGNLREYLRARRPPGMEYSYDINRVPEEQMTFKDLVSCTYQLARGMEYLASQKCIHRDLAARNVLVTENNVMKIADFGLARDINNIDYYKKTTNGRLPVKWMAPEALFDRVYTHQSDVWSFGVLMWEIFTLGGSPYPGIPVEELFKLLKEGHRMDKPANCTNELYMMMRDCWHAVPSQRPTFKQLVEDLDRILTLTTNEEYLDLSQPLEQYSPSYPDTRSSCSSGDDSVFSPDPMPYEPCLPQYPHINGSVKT

- Kd [1]: 0.482 nM
- koff [1]: 5.58e-05 s⁻¹
- kon [1]: 116000 M⁻¹ s⁻¹
B1: Ab hu21-26 (antibody, human IgG1, V domains shown)
VH: EVQLVQSGAEVKKPGASVKVSCKASGYTFTNYWMHWVRQAPGQGLEWMGAIYPENRDINYNQKFKGRVTLTRDTSISTAYMELSRLRSDDTAVYYCTSRGDYWGQGTTVTVSS
VL: AIQLTQSPSSLSASVGDRVTITCSASSGLSYMSWYQQKPGKAPKLLIYDTSNLASGVPSRFSGSGSGTDFTLTISSLQPEDFATYYCQQWSSYPYTFGQGTKLEIK

- Kd [1]: 0.25 nM
- koff [1]: 2.45e-05 s⁻¹
- kon [1]: 98000 M⁻¹ s⁻¹
B2: Ab hu21-21 (antibody, V domains shown)
VH: B1 VH with R56G
VL: B1 VL

- Kd [2]: 225 nM
- koff [3]: 0.00746 s⁻¹
- kon [3]: 33200 M⁻¹ s⁻¹
B3: FPA144 (antibody, INN chains, looked up, V domains shown)
VH: QVQLVQSGAEVKKPGSSVKVSCKASGYIFTTYNVHWVRQAPGQGLEWIGSIYPDNGDTSYNQNFKGRATITADKSTSTAYMELSSLRSEDTAVYYCARGDFAYWGQGTLVTVSS
VL: DIQMTQSPSSLSASVGDRVTITCKASQGVSNDVAWYQQKPGKAPKLLIYSASYRYTGVPSRFSGSGSGTDFTFTISSLQPEDIATYYCQQHSTTPYTFGQGTKLEIK

- EC50 [4]: 8 nM
- GI50, inhibition of FGF7-induced BaF3 cell proliferation (MTS, 72 hours) [5]: 10 nM
- Kd [1]: 0.269 nM
- koff [1]: 2.46e-05 s⁻¹
- kon [1]: 91300 M⁻¹ s⁻¹
- EC50 (read off the curve) [6]: 400 pM
B4: Ab 21c (antibody, V domains shown)
VH: EVQLHQSGTVLARPGASVKMSCKTSGYTFTNYWMHWIKQRPGQGLEWIGAIYPENGDINYNQKFKGKAKLTAVTSASTAYMDLSSLTNEDSAVYYCTSRGDYWGQGTTLTVSS
VL: QIVLTQSPAIMSASPGEKVTMTCSASSGLSYMSWYQQKPGSSPRLLIYDTSNLASGVPVRFSGSGSGTSYSLTISRMEAEDAATYYCQQWSSYPYTFGGGTKLEIK

- EC50 (read off the curve) [7]: 400 pM
B5: Ab 21 (antibody, V domains shown)
VH: B4 VH
VL: B4 VL
